What was measured:
[1] = Osmolality of 21B12 formulations; assay type: physicochemical
Description: In certain embodiments, the pharmaceutical formulation is isotonic with an osmolality ranging from between about 250 to about 350 miliosmol/kg, e.g., about 250 mOsm/kg, about 260 mOsm/kg, about 270 mOsm/kg, about 280 mOsm/kg, about 290 mOsm/kg, about 300 mOsm/kg, about 310 mOsm/kg, about 320 mOsm/kg, about 330 mOsm/kg, about 340 mOsm/kg, or about 350 mOsm/kg, and including all values in between. As used herein, “osmolality” is the measure of the ratio of solutes to volume fluid. In other words, it is the number of molecules and ions (or molecules) per kilogram of a solution. Osmolality may be measured on an analytical instrument called an osmometer, such as Advanced Instruments 2020 Multi-sample Osmometer, Norwood, Mass. The Advanced Instrumetns 2020 Multi-sample Osmometer measures osmolality by using the Freezing Point Depression method. The higher the osmolytes in a solution, the temperature in which it will freeze drops. Osmolality may also be measured using any other methods and in any other units known in the art such as linear extrapolation.

[2] = test system: hypercholesterolemic subjects unable to tolerate an effective dose of an HMG-CoA reductase inhibitor; assay: 12 week study vs ezetimibe in statin-intolerant patients (Example 23); assay type: in vivo, human; details: preliminary
Method: It is planned to enroll 150 subjects. […] Randomization will be stratified by screening LDL-C level (<130 mg/dL [3.4 mmol/L] vs≧130 mg/dL) and statin use at baseline (yes vs no). Randomization should occur within 5-10 days of the screening LDL-C evaluation used to determine eligibility. Monoclonal antibody, 21B12, and placebo will be blinded. Ezetimibe is not blinded. Study visits are at weeks 2, 4, 8, and 12. […] The end-of-study visit and the last evaluation of lipids is at week 12.
Males and females, ≧18 to ≦75 years of age, are eligible for this study. Subject must have tried at least 1 statin and have been unable to tolerate any dose or an increase in statin dose above the following total weekly maximum doses due to myalgia or myopathy: atorvastatin ≦70 mg, simvastatin ≦140 mg, pravastatin ≦140 mg, rosuvastatin ≦35 mg, lovastatin ≦140 mg, fluvastatin ≦280 mg. For unlisted statins, the maximal total weekly dose should not exceed 7 times the smallest available tablet size. Symptoms must have resolved when statin was discontinued or the dose reduced. If receiving statin (not exceeding the maximal dose defined above), bile-acid sequestering resin, and/or stanol therapy, the dose(s) must be stable for at least 4 weeks prior to LDL-C screening. If the subject is on ezetimibe at start of screening, ezetimibe must be discontinued for ≧4 weeks before LDL-C screening. Depending on their risk category (based on NCEP ATP III treatment goals) subjects must meet the following fasting LDL-C (by central laboratory) criteria at screening: ≧100 mg/dL (2.6 mmol/L) for subjects with diagnosed coronary heart disease (CHD) or CHD risk equivalent; ≧130 mg/dL (3.4 mmol/L) for subjects without diagnosed CHD or risk equivalent and 2 or more risk factors; ≧160 mg/dL (4.1 mmol/L) for subjects without diagnosed CHD or risk equivalent and with 1 or no risk factors. Fasting triglycerides must be ≦400 mg/dL (4.5 mmol/L) as determined by the central laboratory analysis at screening.

[3] = 280 mg Q4W SC, end of the dosing interval
[4] = 350 mg Q4W SC, end of the dosing interval

B1: 21B12: human anti-PCSK9 monoclonal antibody; light/heavy variable region SEQ ID NO 23/49 (antibody, listed as Homo sapiens, V domains shown)
VH: QVQLVQSGAEVKKPGASVKVSCKASGYTLTSYGISWVRQAPGQGLEWMGWVSFYNGNTNYAQKLQGRGTMTTDPSTSTAYMELRSLRSDDTAVYYCARGYGMDVWGQGTTVTVSS
VL: QSALTQPASVSGSPGQSITISCTGTSSDVGGYNSVSWYQQHPGKAPKLMIYEVSNRPSGVSNRFSGSKSGNTASLTISGLQAEDEADYYCNSYTSTSMVFGGGTKLTVL
Osmolality (mOsmol/kg) ([1]; 21B12 73 mg/mL, 10 mM Na acetate, pH 5.2 +3% proline): 253 mOsmol/kg | Osmolality (mOsmol/kg) ([1]; 21B12 76 mg/mL, 10 mM Na acetate, pH 5.2): 53 mOsmol/kg | Osmolality (mOsmol/kg) ([1]; 21B12 116 mg/mL, 10 mM sodium acetate, pH 4.8, 50 mM methionine + 2% benzyl alcohol): 329 mOsmol/kg | Osmolality (mOsmol/kg) ([1]; 21B12 116 mg/mL, 10 mM sodium acetate, pH 4.8, 150 mM arginine): 241 mOsmol/kg | Osmolality (mOsmol/kg) ([1]; 21B12 116 mg/mL, 10 mM sodium acetate, pH 4.8, 1.5% proline + 1% benzyl alcohol): 277 mOsmol/kg | Osmolality (mOsmol/kg) ([1]; 21B12 116 mg/mL, 10 mM sodium acetate, pH 4.8, 2% proline + 1% benzyl alcohol): 313 mOsmol/kg | Osmolality (mOsmol/kg) ([1]; 21B12 116 mg/mL, 10 mM sodium acetate, pH 4.8, no excipients): 72 mOsmol/kg | Osmolality (mOsmol/kg) ([1]; 21B12 117 mg/mL, 10 mM Na acetate, pH 4.5): 59 mOsmol/kg | Osmolality (mOsmol/kg) ([1]; 21B12 122 mg/mL, 10 mM Na acetate, pH 5.2 +3% proline): 274 mOsmol/kg | Osmolality (mOsmol/kg) ([1]; 21B12 130 mg/mL, 10 mM Na acetate, pH 5): 59 mOsmol/kg | Osmolality (mOsmol/kg) ([1]; 21B12 148 mg/mL, 10 mM Na acetate, pH 5.2 +3% proline): 301 mOsmol/kg | Osmolality (mOsmol/kg) ([1]; 21B12 […], 10 mM Na acetate, pH 4): 59 mOsmol/kg | Osmolality (mOsmol/kg) ([1]; 21B12 […], 10 mM Na acetate, pH 5.2 +150 mM NaCl): 346 mOsmol/kg | Osmolality (mOsmol/kg) ([1]; 21B12 […], 10 mM Na acetate, pH 5.2 +3% proline): 252 mOsmol/kg | Osmolality (mOsmol/kg) ([1]; 21B12 […], 10 mM Na acetate, pH 5.5): 64 mOsmol/kg | Osmolality (mOsmol/kg) ([1]; 21B12 […], 10 mM Na acetate, pH 5.5 +150 mM methionine and 3% benzyl alcohol): 520 mOsmol/kg | LS mean percent increase from baseline in HDL-C [2, 3]: 8.62% | LS mean percent reduction from baseline in LDL-C [2, 3]: 38.79% | LS mean percent reduction from baseline in Lp(a) [2, 3]: 27.38% | LS mean percent reduction from baseline in VLDL-C [2, 3]: 31.02% | LS mean percent reduction from baseline in non-HDL-C [2, 3]: 39.92% | LS mean percent reduction from baseline in total cholesterol [2, 3]: 31.03% | LS mean percent reduction from baseline in triglycerides [2, 3]: 15.35% | LS mean percent increase from baseline in HDL-C [2, 4]: 4.62% | LS mean percent reduction from baseline in LDL-C [2, 4]: 40.01% | LS mean percent reduction from baseline in Lp(a) [2, 4]: 16.04% | LS mean percent reduction from baseline in VLDL-C [2, 4]: 38.14% | LS mean percent reduction from baseline in non-HDL-C [2, 4]: 42.86% | LS mean percent reduction from baseline in total cholesterol [2, 4]: 34.46% | LS mean percent reduction from baseline in triglycerides [2, 4]: 19.22% | LS mean percent increase from baseline in HDL-C ([2]; 420 mg Q4W SC): 7.55% | LS mean percent reduction from baseline in LDL-C ([2]; 420 mg Q4W SC): 50.63% | LS mean percent reduction from baseline in Lp(a) ([2]; 420 mg Q4W SC): 23.84% | LS mean percent reduction from baseline in VLDL-C ([2]; 420 mg Q4W SC): 37.27% | LS mean percent reduction from baseline in non-HDL-C ([2]; 420 mg Q4W SC): 53.49% | LS mean percent reduction from baseline in total cholesterol ([2]; 420 mg Q4W SC): 42.23% | LS mean percent reduction from baseline in triglycerides ([2]; 420 mg Q4W SC): 19.55%

— patent US20140004122A1, “METHODS FOR TREATING OR PREVENTING CHOLESTEROL RELATED DISORDERS” (AMGEN INC., priority 2011, published 2014)
